Source: publication PMC12692541

System: HalTzlAAA homotrinucleopeptide (synthetic (designed))
Experiment: fluorescence anisotropy
Settings: none

| Sequence | Kd [µM] |
| --- | --- |
| CCAGAGAGCCUGGGAGCUCUCUGG [ΔTAR] | 161 |
| CCAGAUUUGAGCCUGGGAGCUCUCUGG [TAR UUU] | 30.1 |
